Measurements published in patent US20260167699A1 (Chugai, published 2026).

T1: FcγRIIa(H) extracellular domain, His-tagged (human, UniProt P12318 34-217)
T1 construct: extracellular domain; also called 2aH
T1 sequence: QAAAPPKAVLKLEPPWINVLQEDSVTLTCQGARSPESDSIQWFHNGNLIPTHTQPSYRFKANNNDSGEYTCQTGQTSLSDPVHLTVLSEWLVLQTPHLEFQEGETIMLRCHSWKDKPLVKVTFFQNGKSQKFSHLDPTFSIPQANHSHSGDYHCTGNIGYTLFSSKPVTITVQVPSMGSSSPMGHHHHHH

T2: FcγRIIb extracellular domain, His-tagged (human, UniProt P31994 43-217)
T2 construct: extracellular domain; also called 2b
T2 sequence: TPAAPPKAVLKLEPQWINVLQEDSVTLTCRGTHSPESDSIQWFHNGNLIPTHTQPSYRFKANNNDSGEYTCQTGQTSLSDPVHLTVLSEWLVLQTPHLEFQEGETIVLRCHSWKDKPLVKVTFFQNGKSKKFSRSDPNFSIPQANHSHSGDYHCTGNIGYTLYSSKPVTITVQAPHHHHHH

T3: FcγRIIa(R) extracellular domain, His-tagged (human, UniProt P12318 34-217)
T3 construct: extracellular domain; also called 2aR
T3 sequence: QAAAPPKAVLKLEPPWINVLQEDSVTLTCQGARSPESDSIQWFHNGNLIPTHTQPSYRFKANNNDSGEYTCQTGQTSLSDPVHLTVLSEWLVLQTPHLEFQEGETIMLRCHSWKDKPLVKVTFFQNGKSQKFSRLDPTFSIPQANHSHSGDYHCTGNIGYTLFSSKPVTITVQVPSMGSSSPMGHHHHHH


Legend:
Assay in all cases: SPR, vs GpH7-A5/GpH7-B3/GpL16-k0 =100
[1] = biological target: T4, FcγRIIIa extracellular domain, His-tagged (human, UniProt P08637 17-208)
T4 construct: extracellular domain; also called 3a

[2] = biological target: T1, FcγRIIa(H) extracellular domain, …
[3] = biological target: T2, FcγRIIb extracellular domain, His-tagged
[4] = biological target: T5, FcγRIa extracellular domain, His-tagged (human, UniProt P12314 16-292)
T5 construct: extracellular domain; also called 1a

[5] = biological target: T3, FcγRIIa(R) extracellular domain, …

T4 sequence (P08637 other isoform, or with tags, fused parts or gaps): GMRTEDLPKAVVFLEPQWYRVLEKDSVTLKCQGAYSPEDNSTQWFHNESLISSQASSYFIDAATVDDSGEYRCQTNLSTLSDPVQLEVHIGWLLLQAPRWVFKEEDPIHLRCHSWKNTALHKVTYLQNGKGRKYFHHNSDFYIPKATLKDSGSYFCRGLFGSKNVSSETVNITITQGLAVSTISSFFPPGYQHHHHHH
T5 sequence (P12314 other isoform, or with tags, fused parts or gaps): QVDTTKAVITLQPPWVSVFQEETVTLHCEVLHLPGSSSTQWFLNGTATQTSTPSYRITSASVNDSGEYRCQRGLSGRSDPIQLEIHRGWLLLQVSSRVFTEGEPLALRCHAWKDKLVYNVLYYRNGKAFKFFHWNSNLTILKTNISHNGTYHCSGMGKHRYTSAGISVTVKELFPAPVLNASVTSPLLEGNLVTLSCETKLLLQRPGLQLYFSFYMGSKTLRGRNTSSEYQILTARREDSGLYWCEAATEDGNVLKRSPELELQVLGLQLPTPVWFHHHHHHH

Row | Binder | He/Con 3a [1] | He/Con 2aH [2] | He/Con 2b [3] | He/Con 1a [4] | He/Con 2aR [5]
1 | GpH7-A5/GpH7-B3 variant P271_03V/GpL16-k0 (antibody, human IgG1, kappa) heavy 1: not shown heavy 2: not shown light: DIVMTQSPLSLPVTPGEPASISCQASESLVHSNRNTYLHWYLQKPGQSPQLLIYKVSNRFSGVPDRFSGSGSGTDFTLKISRVEAEDVGVYYCSQNTHVPPTFGQGTKVEIERTVAAPSVFIFPPSDEQLKSGTASVVCLLNNFYPREAKVQWKVDNALQSGNSQESVTEQDSKDSTYSLSSTLTLSKADYEKHKVYACEVTHQGLSSPVTKSFNRGEC | 73.5 % of control | 85.4 % of control | 83.8 % of control | 101 % of control | 85.8 % of control
2 | GpH7-A5/GpH7-B3 variant P271_14T/GpL16-k0 (antibody, human IgG1, kappa) heavy 1: not shown heavy 2: not shown light: DIVMTQSPLSLPVTPGEPASISCQASESLVHSNRNTYLHWYLQKPGQSPQLLIYKVSNRFSGVPDRFSGSGSGTDFTLKISRVEAEDVGVYYCSQNTHVPPTFGQGTKVEIERTVAAPSVFIFPPSDEQLKSGTASVVCLLNNFYPREAKVQWKVDNALQSGNSQESVTEQDSKDSTYSLSSTLTLSKADYEKHKVYACEVTHQGLSSPVTKSFNRGEC | 59.2 % of control | 69.8 % of control | 107 % of control | 101 % of control | 94.7 % of control
3 | GpH7-A5/GpH7-B3 variant P271_12R/GpL16-k0 (antibody, human IgG1, kappa) heavy 1: not shown heavy 2: not shown light: DIVMTQSPLSLPVTPGEPASISCQASESLVHSNRNTYLHWYLQKPGQSPQLLIYKVSNRFSGVPDRFSGSGSGTDFTLKISRVEAEDVGVYYCSQNTHVPPTFGQGTKVEIERTVAAPSVFIFPPSDEQLKSGTASVVCLLNNFYPREAKVQWKVDNALQSGNSQESVTEQDSKDSTYSLSSTLTLSKADYEKHKVYACEVTHQGLSSPVTKSFNRGEC | 87.6 % of control | 100 % of control | 96.9 % of control | 101 % of control | 95.8 % of control
4 | GpH7-A5/GpH7-B3 variant P271_11K/GpL16-k0 (antibody, human IgG1, kappa) heavy 1: not shown heavy 2: not shown light: DIVMTQSPLSLPVTPGEPASISCQASESLVHSNRNTYLHWYLQKPGQSPQLLIYKVSNRFSGVPDRFSGSGSGTDFTLKISRVEAEDVGVYYCSQNTHVPPTFGQGTKVEIERTVAAPSVFIFPPSDEQLKSGTASVVCLLNNFYPREAKVQWKVDNALQSGNSQESVTEQDSKDSTYSLSSTLTLSKADYEKHKVYACEVTHQGLSSPVTKSFNRGEC | 92.5 % of control | 100 % of control | 101 % of control | 101 % of control | 97.3 % of control
5 | GpH7-A5/GpH7-B3 variant P271_08L/GpL16-k0 (antibody, human IgG1, kappa) heavy 1: not shown heavy 2: not shown light: DIVMTQSPLSLPVTPGEPASISCQASESLVHSNRNTYLHWYLQKPGQSPQLLIYKVSNRFSGVPDRFSGSGSGTDFTLKISRVEAEDVGVYYCSQNTHVPPTFGQGTKVEIERTVAAPSVFIFPPSDEQLKSGTASVVCLLNNFYPREAKVQWKVDNALQSGNSQESVTEQDSKDSTYSLSSTLTLSKADYEKHKVYACEVTHQGLSSPVTKSFNRGEC | 74.5 % of control | 99.4 % of control | 115 % of control | 101 % of control | 103 % of control
6 | GpH7-A5/GpH7-B3 variant P271_16H/GpL16-k0 (antibody, human IgG1, kappa) heavy 1: not shown heavy 2: not shown light: DIVMTQSPLSLPVTPGEPASISCQASESLVHSNRNTYLHWYLQKPGQSPQLLIYKVSNRFSGVPDRFSGSGSGTDFTLKISRVEAEDVGVYYCSQNTHVPPTFGQGTKVEIERTVAAPSVFIFPPSDEQLKSGTASVVCLLNNFYPREAKVQWKVDNALQSGNSQESVTEQDSKDSTYSLSSTLTLSKADYEKHKVYACEVTHQGLSSPVTKSFNRGEC | 70.3 % of control | 76.4 % of control | 76.2 % of control | 100 % of control | 79 % of control
7 | GpH7-A5/GpH7-B3 variant P271_09D/GpL16-k0 (antibody, human IgG1, kappa) heavy 1: not shown heavy 2: not shown light: DIVMTQSPLSLPVTPGEPASISCQASESLVHSNRNTYLHWYLQKPGQSPQLLIYKVSNRFSGVPDRFSGSGSGTDFTLKISRVEAEDVGVYYCSQNTHVPPTFGQGTKVEIERTVAAPSVFIFPPSDEQLKSGTASVVCLLNNFYPREAKVQWKVDNALQSGNSQESVTEQDSKDSTYSLSSTLTLSKADYEKHKVYACEVTHQGLSSPVTKSFNRGEC | 97.7 % of control | 80.4 % of control | 135 % of control | 100 % of control | 109 % of control
8 | GpH7-A5/GpH7-B3 variant P271_18N/GpL16-k0 (antibody, human IgG1, kappa) heavy 1: not shown heavy 2: not shown light: DIVMTQSPLSLPVTPGEPASISCQASESLVHSNRNTYLHWYLQKPGQSPQLLIYKVSNRFSGVPDRFSGSGSGTDFTLKISRVEAEDVGVYYCSQNTHVPPTFGQGTKVEIERTVAAPSVFIFPPSDEQLKSGTASVVCLLNNFYPREAKVQWKVDNALQSGNSQESVTEQDSKDSTYSLSSTLTLSKADYEKHKVYACEVTHQGLSSPVTKSFNRGEC | 94 % of control | 94.5 % of control | 105 % of control | 102 % of control | 97.7 % of control
9 | GpH7-A5/GpH7-B3 variant P271_07I/GpL16-k0 (antibody, human IgG1, kappa) heavy 1: not shown heavy 2: not shown light: DIVMTQSPLSLPVTPGEPASISCQASESLVHSNRNTYLHWYLQKPGQSPQLLIYKVSNRFSGVPDRFSGSGSGTDFTLKISRVEAEDVGVYYCSQNTHVPPTFGQGTKVEIERTVAAPSVFIFPPSDEQLKSGTASVVCLLNNFYPREAKVQWKVDNALQSGNSQESVTEQDSKDSTYSLSSTLTLSKADYEKHKVYACEVTHQGLSSPVTKSFNRGEC | 80.2 % of control | 94.1 % of control | 86.1 % of control | 101 % of control | 88 % of control
10 | GpH7-A5/GpH7-B3 variant P271_04F/GpL16-k0 (antibody, human IgG1, kappa) heavy 1: not shown heavy 2: not shown light: DIVMTQSPLSLPVTPGEPASISCQASESLVHSNRNTYLHWYLQKPGQSPQLLIYKVSNRFSGVPDRFSGSGSGTDFTLKISRVEAEDVGVYYCSQNTHVPPTFGQGTKVEIERTVAAPSVFIFPPSDEQLKSGTASVVCLLNNFYPREAKVQWKVDNALQSGNSQESVTEQDSKDSTYSLSSTLTLSKADYEKHKVYACEVTHQGLSSPVTKSFNRGEC | 65.6 % of control | 77.1 % of control | 66.7 % of control | 100 % of control | 75.2 % of control
11 | GpH7-A5/GpH7-B3 variant P271_15Y/GpL16-k0 (antibody, human IgG1, kappa) heavy 1: not shown heavy 2: not shown light: DIVMTQSPLSLPVTPGEPASISCQASESLVHSNRNTYLHWYLQKPGQSPQLLIYKVSNRFSGVPDRFSGSGSGTDFTLKISRVEAEDVGVYYCSQNTHVPPTFGQGTKVEIERTVAAPSVFIFPPSDEQLKSGTASVVCLLNNFYPREAKVQWKVDNALQSGNSQESVTEQDSKDSTYSLSSTLTLSKADYEKHKVYACEVTHQGLSSPVTKSFNRGEC | 62.7 % of control | 74 % of control | 58.6 % of control | 101 % of control | 70 % of control
12 | GpH7-A5/GpH7-B3 variant P271_06M/GpL16-k0 (antibody, human IgG1, kappa) heavy 1: not shown heavy 2: not shown light: DIVMTQSPLSLPVTPGEPASISCQASESLVHSNRNTYLHWYLQKPGQSPQLLIYKVSNRFSGVPDRFSGSGSGTDFTLKISRVEAEDVGVYYCSQNTHVPPTFGQGTKVEIERTVAAPSVFIFPPSDEQLKSGTASVVCLLNNFYPREAKVQWKVDNALQSGNSQESVTEQDSKDSTYSLSSTLTLSKADYEKHKVYACEVTHQGLSSPVTKSFNRGEC | 74 % of control | 87.7 % of control | 87 % of control | 101 % of control | 87.3 % of control
13 | GpH7-A5/GpH7-B3 variant P271_13S/GpL16-k0 (antibody, human IgG1, kappa) heavy 1: not shown heavy 2: not shown light: DIVMTQSPLSLPVTPGEPASISCQASESLVHSNRNTYLHWYLQKPGQSPQLLIYKVSNRFSGVPDRFSGSGSGTDFTLKISRVEAEDVGVYYCSQNTHVPPTFGQGTKVEIERTVAAPSVFIFPPSDEQLKSGTASVVCLLNNFYPREAKVQWKVDNALQSGNSQESVTEQDSKDSTYSLSSTLTLSKADYEKHKVYACEVTHQGLSSPVTKSFNRGEC | 79.8 % of control | 83.3 % of control | 98.2 % of control | 101 % of control | 93.5 % of control
14 | GpH7-A5/GpH7-B3 variant P271_10E/GpL16-k0 (antibody, human IgG1, kappa) heavy 1: not shown heavy 2: not shown light: DIVMTQSPLSLPVTPGEPASISCQASESLVHSNRNTYLHWYLQKPGQSPQLLIYKVSNRFSGVPDRFSGSGSGTDFTLKISRVEAEDVGVYYCSQNTHVPPTFGQGTKVEIERTVAAPSVFIFPPSDEQLKSGTASVVCLLNNFYPREAKVQWKVDNALQSGNSQESVTEQDSKDSTYSLSSTLTLSKADYEKHKVYACEVTHQGLSSPVTKSFNRGEC | 98.2 % of control | 72.4 % of control | 122 % of control | 101 % of control | 102 % of control
